The numbers were not newly measured in PMC11283454 (Nature Communications, 2024), which cites them from elsewhere.

B1: scATE1: Saccharomyces cerevisiae ATE1 (protein, UniProt P16639 1-503, looked up)
Arginyl-tRNA--protein …: MSDRFVIWAPSMHNEPAAKCGYCHGNKGGNMDQLFALDSWAHRYMNKMDVVKIENCTIGSFVEHMDVATYDRMCNMGFRRSGKFLYKVDPLRNCCRLYTIRTAPQELNMTKELKKCISRFATRITSEDYCPAAVASSDFVGKIVNAEMNSKTFYTRFEPALYSEEKYHLFVKYQEKVHQDYNNSPKSFKRFLCDTPFGPEAVLGTQESWEQLNNWQRMKPGEKLKHMGPVHECYYYEGKLIAITVSDILPSGISSVYFIWDPDYSKWSLGKLSALRDLAIIQRTNLQYYYLGYYIEDCPKMNYKANYGAEVLDVCHSKYIPLKPIQDMISRGKLFVIGEEETKVTKELYLVDSETGRGEGFPTDNVVKYKNIAEEIYGVGGCAFKSANESALELKELYGIPYEEEDLDTIYHLKEHNGHAPNGIPNVVPGLLPLWELLDIMQSGKITDLEGRLFLFEIETEGIRPLINFYSEPPNVKKRICDVIRLFGFETCMKAVILYSEQM
In the case of B1, the “Tm of scATE1” value is ~ 46 °C.
